Reference: patent publication US20210347908A1 (ELPISCIENCE SUZHOU BIOPHARMA, published 2021)

Tests used:
[1] = target: T1, 6×His tagged human SIRPα v2 ECD recombinant protein (human); assay: SPR (Biacore)
Procedure: (§1) Anti-SIRPα chimeric antibodies were characterized for binding affinity against human SIRPα v1, human SIRPα v2 and C57BL/6 mouse SIRPα using Biacore (GE). Briefly the antibodies to be tested were captured to CM5 chip (GE) using Human Antibody Capture Kit (GE). The antigens of 6×His tagged human SIRPα v1, human SIRPα v2 and C57BL/6 mouse SIRPα ECD recombinant proteins were serially diluted for multiple doses and injected at 30 μl/min for 180 s. Buffer flow was maintained for dissociation of 400 s. 3 M MgCl₂ was used for chip regeneration. The association and dissociation curves were fit with 1:1 binding model, and the Ka/Kd/KD values for each antibody were calculated.
(§2) hu035.01, the first version of humanized 035, was characterized by FACS assay using CHOK1-human SIRPα v1-1B4 cells, ELISA assay using Fc tagged human SIRPα v2 ECD recombinant protein and SPR analysis using the antigen of 6×His tagged human SIRPα v2 ECD recombinant protein (refer to methods described in Example 3.4, Example 3.3 and Example 4.3). […] In particular, hu035.01 cannot be detected to bind with C57BL/6 mouse SIRPα ECD in ELISA assay possibly due to reduced binding activity (FIG. 5B).

[2] = target: T1, 6×His tagged human SIRPα v2 ECD …; assay: SPR (Biacore), antibody captured, 6×His tagged human SIRPα v2 ECD as analyte
Procedure: as §1, §2

[3] = target: T2, 6×His tagged C57BL/6 mouse SIRPα ECD recombinant protein (mouse (C57BL/6), UniProt P97797 32-373); assay: ELISA on coated mouse SIRPα (C57BL/6) ECD, antibody at 10, 1 and 0.1 ug/ml [right panel mSIRPα ECD (C57BL/6]
T2 construct: extracellular domain; bought; also called mSIRPα (C57BL/6); mouse SIRPα (C57BL/6) ECD
T2 sequence: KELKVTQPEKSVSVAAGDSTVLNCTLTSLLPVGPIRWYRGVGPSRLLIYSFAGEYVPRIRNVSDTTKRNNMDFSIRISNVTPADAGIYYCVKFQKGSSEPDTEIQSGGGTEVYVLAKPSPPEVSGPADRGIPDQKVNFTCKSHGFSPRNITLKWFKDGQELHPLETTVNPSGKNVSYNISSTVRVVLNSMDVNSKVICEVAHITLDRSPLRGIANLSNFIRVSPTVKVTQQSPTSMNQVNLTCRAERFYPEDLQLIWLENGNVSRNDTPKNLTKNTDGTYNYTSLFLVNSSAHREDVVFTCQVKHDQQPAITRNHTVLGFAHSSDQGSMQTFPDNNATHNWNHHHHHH

[4] = target: T3, full length human SIRPα v1 stably expressed on CHOK1 cells (human, UniProt P78324 31-504); assay: FACS on CHOK1-human SIRPα v1-1B4 cells
T3 construct: whole, on cells; also called CHOK1-human SIRPα v1-1B4 cells; CHOK1-human SIRPα v1
Procedure: Species cross reactivity of the purified hybridoma antibodies against human, cyno and mouse SIRPα was determined by FACS assay using CHOK1-human SIRPα v1-1B4 cells, CHOK1-cyno SIRPα-2A2 cells, and CHOK1-C57BL/6 mouse SIRPα-2.22 cells, which stably expressing SIRPα protein. Briefly the antibodies were incubated with 2×10⁵ target cells at 4° C. for 1 hour. After washing, fluorescence labeled anti-mouse or anti-human IgG 2nd antibody (Life Technologies) was added and incubated at 4° C. for 1 hour. Geometric median fluorescence intensity was detected and EC₅₀ was calculated. In particular, it is noted, in contrast to the other antibodies tested in the same experiment, 060 cannot bind with cyno SIRPα and 035 has cross reactivity against C57BL/6 mouse SIRPα.
as §2

T1 sequence (chain, as listed by the source): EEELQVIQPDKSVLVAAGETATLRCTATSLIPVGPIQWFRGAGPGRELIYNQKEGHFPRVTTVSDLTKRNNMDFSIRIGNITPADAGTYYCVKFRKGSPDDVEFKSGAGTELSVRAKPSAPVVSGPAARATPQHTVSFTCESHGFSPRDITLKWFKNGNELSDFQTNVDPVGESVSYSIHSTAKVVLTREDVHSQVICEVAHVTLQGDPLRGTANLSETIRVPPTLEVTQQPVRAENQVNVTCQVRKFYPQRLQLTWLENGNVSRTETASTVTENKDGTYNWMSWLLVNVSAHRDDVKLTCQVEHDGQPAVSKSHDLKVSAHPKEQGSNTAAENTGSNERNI

- Kd [1]: 53.4 nM
- koff [2]: 0.00065 s⁻¹
- kon [2]: 12200 M⁻¹ s⁻¹
- binding result [3]: no binding (tested: 10 ug/ml)
- EC50 (read off the curve) [4]: ~0.5 µg/mL
B1: humanized antibody hu035.01 (antibody, V domains shown)
VH: QIQLVQSGSELKKPGASVKVSCKASGYTFTNYAMNWVRQAPGQGLEWMGWINTYTGEPTYAQGFKGRFVFSLDTSVSTAYLQISSLKAEDTAVYYCARTRGYYDFDGGAFDYWGQGTLVTVSS
VL: DIQMTQSPSSLSASVGDRVTITCRASQNVGTHLAWFQQKPGKAPKSLIYSASYRYIGVPSRFSGSGSGTDFTLTISSLQPEDFATYYCQQYNTYPLTFGQGTKLEIK
notes: first humanized version of 035 (CDR graft on VH7-4-1 / VK1-16)
